The text below walks through data of patent US20200140522A1 (US Dept. of Health and Human Services, published 2020).

Data set [1] addresses T1, bovine LPL (lipoprotein lipase) (bovine, UniProt P11151 29-478).
T1 sequence (looked up): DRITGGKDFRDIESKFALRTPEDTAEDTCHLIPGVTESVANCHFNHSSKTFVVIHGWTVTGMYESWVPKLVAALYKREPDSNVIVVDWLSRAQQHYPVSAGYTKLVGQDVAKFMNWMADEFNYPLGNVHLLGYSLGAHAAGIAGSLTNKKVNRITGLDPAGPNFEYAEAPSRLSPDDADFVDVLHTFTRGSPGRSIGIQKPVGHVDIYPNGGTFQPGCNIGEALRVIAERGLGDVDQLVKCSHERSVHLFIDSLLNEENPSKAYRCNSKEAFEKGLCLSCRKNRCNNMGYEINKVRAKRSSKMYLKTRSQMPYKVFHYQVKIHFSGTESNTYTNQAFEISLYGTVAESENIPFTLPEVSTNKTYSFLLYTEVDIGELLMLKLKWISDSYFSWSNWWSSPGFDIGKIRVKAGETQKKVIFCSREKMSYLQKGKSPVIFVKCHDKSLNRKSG
The data set can be described thus: cell-based or functional assay.

A further data set concerns the target T2, C2thirdhelix Stearylpos2.
T2 chain: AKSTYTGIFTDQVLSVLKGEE

Another data set deals with T3, Delta4b-1.
T3 chain: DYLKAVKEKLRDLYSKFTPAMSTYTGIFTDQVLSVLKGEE

For data set [2], the target named is variants of Delta5 with the indicated amino acid substitutions.
The target of the next data set is T4, Delta13-31-PV.
T4 chain: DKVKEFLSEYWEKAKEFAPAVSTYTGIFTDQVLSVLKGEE

The target in the next data set is T5, Delta4c trunc7.
T5 chain: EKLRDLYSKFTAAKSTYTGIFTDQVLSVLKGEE

For a further data set, the target named is T6, Delta4c trunc14.
T6 chain: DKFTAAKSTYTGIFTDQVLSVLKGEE

The target in the next data set is T7, Delta4c trunc11.
T7 chain: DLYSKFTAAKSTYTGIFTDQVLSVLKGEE

For another data set, the target named is T8, Delta4.
T8 chain: T3 chain with K7F, P19A, M21L

Data set [3] addresses T9, C2thirdhelix Stearylpos17.
T9 chain: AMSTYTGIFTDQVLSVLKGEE

The target in a further data set is T10, Delta6.
T10 chain: T3 chain with A5E, K7F, S15E, P19A, M21L

The target in another data set is T11, Delta4b-3.
T11 chain: T3 chain with K7F, F17K

The target of another data set is T12, Delta5.
T12 chain: T3 chain with A5E, K7F, P19A, M21L

In a further data set the target is T13, C2thirdhelix.
T13 chain: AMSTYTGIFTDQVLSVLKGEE

The next data set has as its target T14, Delta4c trunc10.
T14 chain: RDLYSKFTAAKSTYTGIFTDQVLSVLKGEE

The target in the next data set is T15, Delta4c.
T15 chain: T3 chain with K7F, P19A, M21K

For a further data set, the target named is T16, Delta4b-2.
T16 chain: T3 chain with K7F, L10K

The target in another data set is T17, Delta4c trunc3.
T17 chain: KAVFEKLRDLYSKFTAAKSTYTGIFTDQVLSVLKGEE

For another data set, the target named is T18, C2thirdhelix Stearylpos1.
T18 chain: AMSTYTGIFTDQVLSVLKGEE

A further data set addresses T19, Delta4c trunc4.
T19 chain: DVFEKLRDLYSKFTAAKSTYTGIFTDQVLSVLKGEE

The target in another data set is T20, Delta4b T57F.
T20 chain: T3 chain with K7F, T18F

The next data set has as its target T21, Delta4b.
T21 chain: T3 chain with K7F

Numbering of substitutions follows the chain as printed.

Consider recombinant ApoC-III, for which, in [1], the free fatty acid (NEFA) production, LPL assay with high TG human plasma (1:50) is 1.7 µM and the free fatty acid (NEFA) production, LPL assay with human plasma is 0.8 µM.

B1: bovine LPL (lipoprotein lipase) (protein)
chain: T1 sequence (looked up)
Consider B1, for which the “TG hydrolysis, in vitro LPL assay with apoC-II deficient patient sera” value with C2thirdhelix Stearylpos2 is “lipidation enhanced the ability of C2thirdhelix to promote TG hydrolysis”; in the data set with Delta13-31-PV, “promoted TG hydrolysis in vitro in a dose-dependent manner”; in data set [3] it was “lipidation enhanced the ability of C2thirdhelix to promote TG hydrolysis”; with Delta4b-3 it was “incorporation of proline at position 58 and the stearic acid modification at the lysine residue at position 56 enhanced the TG clearance ability of the exemplary apoC-III mimetic peptide Delta4”; with C2thirdhelix, “lipidation enhanced the ability of C2thirdhelix to promote TG hydrolysis”; with C2thirdhelix Stearylpos1, “lipidation enhanced the ability of C2thirdhelix to promote TG hydrolysis”. In addition, in the data set with Delta4b, the “TG hydrolysis, in vitro LPL assay with apoC-II deficient patient sera” value is “incorporation of proline at position 58 and the stearic acid modification at the lysine residue at position 56 enhanced the TG clearance ability of the exemplary apoC-III mimetic peptide Delta4”. Further, the “TG hydrolysis, in vitro LPL assay, 100 pM to 10 µM peptide” value in the data set with Delta4b-1, with Delta4, with Delta4b-3, with Delta4b-2, in the data set with Delta4b T57F and in the data set with Delta4b was “promoted TG hydrolysis in a dose-dependent manner” throughout. Also, the “TG hydrolysis, LPL assay with apoC-II deficient patient sera” value is “all variants of Delta5 with the indicated amino acid substitutions and Delta6 exhibited the ability to promote TG hydrolysis in a dose dependent matter” in [2]; “Delta4c and its truncation variants promoted TG hydrolysis” in the data set with Delta4c trunc7; “Delta4c and its truncation variants promoted TG hydrolysis” in the data set with Delta4c trunc14; “Delta4c and its truncation variants promoted TG hydrolysis” with Delta4c trunc11; “all variants of Delta5 with the indicated amino acid substitutions and Delta6 exhibited the ability to promote TG hydrolysis in a dose dependent matter” with Delta6; “Delta4c and its truncation variants promoted TG hydrolysis” with Delta4c trunc10. Moreover, the “TG hydrolysis, LPL assay with apoC-II deficient patient sera” value with Delta4c was “Delta4c and its truncation variants promoted TG hydrolysis”; with Delta4c trunc3, “Delta4c and its truncation variants promoted TG hydrolysis”; with Delta4c trunc4, “Delta4c and its truncation variants promoted TG hydrolysis”. In addition, the “TG hydrolysis, LPL assay using Intralipid as substrate” value with Delta4 and in the data set with Delta5 was “worked more efficiently than the native apoC-II protein at concentrations of between about 1 nM to about 10 µM” throughout. Also, the “production of free fatty acid (NEFA), LPL assay with Intralipid as substrate” value in the data set with recombinant ApoC-III is given as “apoC-III inhibited the production of free fatty acid (NEFA)”.
For the molecule DWLKAFYDKVAEKLKEAFPAMSTYTGIFTDQVLSVLKGEE [apoC-II-a peptide], the “molar ratio of apoC-II-a to apoC-III that overcomes the in vitro inhibition of LPL” value in data set [1] is 0.1 molar ratio apoC-II-a : apoC-III.
